Source: patent US6652861B1, “Anti-HIV and anti-tumor peptides and truncated polypeptides of MAP30” (priority 1999, dated 2003)
Read-outs that look alike come from different tables or passages of the source.

B1: MVF21: MAP30 V8 fragment, 20-21 kDa, residues 1-187 of SEQ ID NO:1 (protein, listed as Momordica charantia)
chain: DVNFDLSTATAKTYTKFIEDFRATLPFSHKVYDIPLLYSTISDSRRFILLDLTSYAYETISVAIDVTNVYVVAYRTRDVSYFFKESPPEAYNILFKGTRKITLPYTGNYENLQTAAHKIRENIDLGLPALSSAITTLFYYNAQSAPSALLVLIQTTAEAARFKYIERHVAKYVATNFKPNLAIISLE
B2: MVF0.8: MAP30 V8 C-terminal fragment, residues 188-263 of SEQ ID NO:1 (protein, listed as Momordica charantia)
chain: NQWSALSKQIFLAQNQGGKFRNPVDLIKPTGERFQVTNVDSDVVKGNIKLLLNSRASTADENFITTMTLLGESVVN
B3: MLF25: MAP30 Lys-C fragment, 24-25 kDa, residues 13-232 of SEQ ID NO:1 (protein, listed as Momordica charantia)
chain: TYTKFIEDFRATLPFSHKVYDIPLLYSTISDSRRFILLDLTSYAYETISVAIDVTNVYVVAYRTRDVSYFFKESPPEAYNILFKGTRKITLPYTGNYENLQTAAHKIRENIDLGLPALSSAITTLFYYNAQSAPSALLVLIQTTAEAARFKYIERHVAKYVATNFKPNLAIISLENQWSALSKQIFLAQNQGGKFRNPVDLIKPTGERFQVTNVDSDVVK
B4: MVF25: MAP30 V8 fragment, 24-25 kDa, residues 1-219 of SEQ ID NO:1 (protein, listed as Momordica charantia)
chain: DVNFDLSTATAKTYTKFIEDFRATLPFSHKVYDIPLLYSTISDSRRFILLDLTSYAYETISVAIDVTNVYVVAYRTRDVSYFFKESPPEAYNILFKGTRKITLPYTGNYENLQTAAHKIRENIDLGLPALSSAITTLFYYNAQSAPSALLVLIQTTAEAARFKYIERHVAKYVATNFKPNLAIISLENQWSALSKQIFLAQNQGGKFRNPVDLIKPTGE
B5: MLF0.8: MAP30 Lys-C C-terminal fragment, residues 196-263 of SEQ ID NO:1 (protein, listed as Momordica charantia)
chain: QIFLAQNQGGKFRNPVDLIKPTGERFQVTNVDSDVVKGNIKLLLNSRASTADENFITTMTLLGESVVN
B6: MLF21: MAP30 Lys-C fragment, 20-21 kDa, residues 13-195 of SEQ ID NO:1 (protein, listed as Momordica charantia)
chain: TYTKFIEDFRATLPFSHKVYDIPLLYSTISDSRRFILLDLTSYAYETISVAIDVTNVYVVAYRTRDVSYFFKESPPEAYNILFKGTRKITLPYTGNYENLQTAAHKIRENIDLGLPALSSAITTLFYYNAQSAPSALLVLIQTTAEAARFKYIERHVAKYVATNFKPNLAIISLENQWSALSK

Tests used:
HIV-1 = assay: Anti-HIV activity: viral core protein p24 expression in HIV-1 infected H9 T lymphocytes by RIA; type: cell-based
Description: (§1) In FIG. 3A, anti-HIV activity was assayed by HIV core protein p24 expression in H9 cells (Lee-Huang et al., 1990 and Lee-Huang et al., 1991). […] Anti-tumor activity was determined by in vitro proliferation of human breast tumor MAD-MB-231 cell by [^3H] thymidine incorporation (Lee-Huang et al., 1999) and the average control value was about 1.88×10^5 cpm/ml (FIG. 3B). In FIG. 3C, the cytotoxic effect was measured by the MTS colorimetric assay (Lee-Huang et al., 1999), and in FIG. 3D, the ribosome-inactivation activity was determined by in vitro translation of globin message in a rabbit reticulocyte lysate system (Lee-Huang et al., 1990 and Lee-Huang et al., 1991) and the average control value was about 5.8×10^4 cpm/ml. In each assay, triplicates were carried in two independent experiments, and the results are normalized to values obtained in control assays. Standard deviations are indicated by error bars.
(§2) Anti-HIV activity was determined by inhibition on the expression of viral core protein p24 expression by RIA (Lee-Huang et al., 1990; Lee-Huang et al., 1991 and Lee-Huang et al., 1999). Anti-tumor activity was determined by the effects of the peptide fragments on the growth of human breast tumor cell line MDA-MB-231 by [^3H] thymidine incorporated (Lee-Huang et al., 1999 and Rybak et al., 1994). HIV-integrase inhibition was assayed by the three specific reactions catalyzed by the integrase, namely, 3′ processing (specific cleavage of the dinucleotide GT from the viral substrate HIV-LTR U3), strand transfer (integration) and disintegration (Lee-Huang et al., 1995). Topological inactivation was measured by the conversion of supercoiled HIV-LTR DNA to relaxed and linear forms (Huang et al., 1992). Ribosome inactivation was determined by the translation of globin message in a rabbit reticulocyte lysate system (Lee-Huang et al., 1990 and Lee-Huang et al., 1991).
(§3) To analyze the structural and activity relationship of the anti-HIV proteins, each of the homogeneous proteolytic fragments was assayed for anti-HIV and anti-tumor activities. […] Anti-HIV activity was measured by viral core protein p24 expression in HIV-1 infected H9 T lymphocytes by RIA (Lee-Huang et al., 1990 and Lee-Huang et al., 1991). Anti-tumor activity was measured by proliferation of human breast tumor MDA231 cells (Lee-Huang et al., 1999 and Rybak et al., 1994). […] No significant difference in the anti-HIV and anti-tumor activities was detected between these core fragments.

[1] = system: human breast tumor cell line MDA-MB-231; assay: Anti-tumor activity: proliferation of MDA-MB-231 cells by [3H] thymidine incorporation; type: cell-based; conditions: MDA231 proliferation
Description: as §1, §2, §3

HIV-1 integrase = biological target: T1, HIV-1 integrase (Human immunodeficiency virus type 1 group M subtype B, UniProt P04585); assay: HIV-integrase inhibition (3'-processing, strand transfer, disintegration); type: biochemical; conditions: strand transfer and disintegration
T1 construct: assayed by the 3′-processing reaction of HIV-1 integrase
Description: (§4) In FIG. 4A, the inhibition on HIV-integrase was assayed by the 3′-processing reaction of HIV-1 integrase (Lee-Huang et al., 1995). This activity was assayed by specific cleavage of the dinucleotide GT from 5′-[^32P] labeled 21-mer of the HIV-U3-LTR substrate. The effect was measured by the inhibition of the formation of labeled 19-mer product by autoradiography of urea gels. […] In FIG. 4B, topological inactivation was measured by the conversion of supercoiled HIV-LTR DNA (S) into relaxed (R) and linear (L) forms by agarose gel electrophoresis (Huang et al., 1992). Samples that cause topological inactivation show L and R and no S forms.
as §2

supercoiled HIV-LTR DNA = assay: Topological inactivation: conversion of supercoiled HIV-LTR DNA to relaxed and linear forms; type: biochemical; conditions: supercoiled HIV-LTR into relaxed and linear forms
Description: as §4, §2

[2] = system: ribosome (rabbit reticulocyte lysate system); assay: Ribosome inactivation: translation of globin message in a rabbit reticulocyte lysate system; type: biochemical; conditions: [3H]-labelled leucine incorporation
Description: as §1, §2
The anti-HIV and anti-tumor fragments, MLF25, MLF21, MVF25, MVF21, GLF26, GLF22, GVF26, GVF22 are active in HIV-integrase inhibition as assayed by the 3′-processing (FIG. 4A), strand transfer and disintegration (data not shown) as well as in DNA topological inactivation as assayed by the conversion of supercoiled HIV-LTR into relaxed and linear forms (FIG. 4B). […] Moreover, the C-terminal regions of these proteins are required for N-glycosidase activity, but not for antiviral and anti-tumor activities.

[3] = system: endoproteinase Lys-C and Glu-C (V8); assay: Resistance to limited proteolysis with Lys-C and V8 (SDS-PAGE); conditions: Lys-C or V8, up to 24 hr
Description: MAP30 and GAP31 were subjected to proteolysis with sequencing grade endoproteinase Lys-C and Glu-C (Promega, Madison, Wis.). Lys-C cleaves at the carboxylic side of lysine (Elliott et al., 1986). Glu-C, also known as V8 protease, cleaves specifically at the carboxylic side of glutamic acid in the presence of ammonium ion (Drapeau et al., 1972). In the absence of ammonium ion, Glu-C acts at both aspartic and glutamic acids. The reaction buffers for Lys-C and V8 were 25 mM Tris-HCl, pH 7.8, 1 mM EDTA and 50 mM ammonium bicarbonate, pH 7.8 respectively.
FIGS. 1A-1D show time course SDS-PAGE patterns of Lys-C and V8 digestions of MAP30 and GAP31. Three major fragments were produced in each case. These fragments are designated MLF25, MLF21, MLF0.8 (MAP30 Lys-C Fragments of 25, 21, and 0.8 kDa, FIG. 1A), MVF25, MVF21, MVF0.8 (MAP30 V8 Fragments of 25, 21, and 0.8 kDa, FIG. 1B), GLF26, GLF22, GLF0.6 (GAP31 Lys-C Fragments of 26, 22 and 0.6 kDa, FIG. 1C), and GVF26, GVF22, GVF0.6 (GAP31 V8 Fragments of 26, 22 and 0.6 kDa, FIG. 1D). The smaller peptides are C-terminal fragments produced during proteolysis and they are sensitive to further digestion to short peptides.

Row | Molecule | anti-HIV activity (HIV-1) | anti-HIV activity (HIV-1; listed as peak 3) | anti-tumor activity [1] | anti-tumor activity ([1]; listed as peak 3) | HIV-integrase inhibition (HIV-1 integrase) | DNA topological inactivation (supercoiled HIV-LTR DNA) | ribosome inactivation [2] | resistance to proteolysis [3]
1 | GLF0.6: GAP31 Lys-C C-terminal fragment, residues 201-251 of SEQ ID NO:2 (LSFQIRTSGANGMFSEAVELERANGKKYYVTAVDQVKPKIALLKFVDKDPK; listed as Gelonium multiflorum) | neither anti-HIV nor anti-tumor activity | no activity was found | neither anti-HIV nor anti-tumor activity | no activity was found |  |  |  | 
2 | GLF22: GAP31 Lys-C fragment, 21-22 kDa, residues 11-200 of SEQ ID NO:2 | Most of the anti-HIV and anti-tumor activity |  | Most of the anti-HIV and anti-tumor activity |  | active | active | none of these fragments are active | 
3 | GLF26: GAP31 Lys-C fragment, 25-26 kDa, residues 11-226 of SEQ ID NO:2 | Most of the anti-HIV and anti-tumor activity |  | Most of the anti-HIV and anti-tumor activity |  | active | active | none of these fragments are active | remained intact even after 24 hr of proteolysis
4 | GVF0.6: GAP31 V8 C-terminal fragment, residues 196-251 of SEQ ID NO:2 (NKWGKLSFQIRTSGANGMFSEAVELERANGKKYYVTAVDQVKPKIALLKFVDKDPK; listed as Gelonium multiflorum) | neither anti-HIV nor anti-tumor activity |  | neither anti-HIV nor anti-tumor activity |  |  |  |  | 
5 | GVF22: GAP31 V8 fragment, 21-22 kDa, residues 1-195 of SEQ ID NO:2 |  |  |  |  | active | active | none of these fragments are active | remained intact even after 24 hr of proteolysis
6 | GVF26: GAP31 V8 fragment, 25-26 kDa, residues 1-219 of SEQ ID NO:2 |  |  |  |  | active | active | none of these fragments are active | 
7 | B1 |  |  |  |  | active | active | none of these fragments are active | remained intact even after 24 hr of proteolysis
8 | B2 | neither anti-HIV nor anti-tumor activity |  | neither anti-HIV nor anti-tumor activity |  |  |  |  | 
9 | B3 |  |  |  |  | active | active | none of these fragments are active | remained intact even after 24 hr of proteolysis
10 | B4 |  |  |  |  | active | active | none of these fragments are active | 
11 | B5 | neither anti-HIV nor anti-tumor activity |  | neither anti-HIV nor anti-tumor activity |  |  |  |  | 
12 | B6 |  |  |  |  | active | active | none of these fragments are active | 
